According to article PMC7338535 (Scientific Reports, 2020):

Target: the molecule itself
Assay: crystal structure; apo DiB3, crystals grown at 21 °C in 0.8 M sodium citrate, 50 mM sodium borate, 0.1 sodium acetate, pH 3.5; one chain in the asymmetric unit, dimer with a crystallographic symmetry mate

B1: DiB3 (natural protein)
chain: LESTSLYKKSSSTPPRGVTVVNNFDAKRYLGTWYEIARFDHRFERGLEKVTATYSLRDDGGLNFINKGYNPDRGMWQQSEGKAYFTGAPTRAALKVSFFGPFYGGYNVIALDREYRHALVCGPDRDYLWIQSRTPTISDEVKQEMLAVATREGFDVSKFIWVQQPGS
stoichiometry N: 2
